Here are results for 1 protein from PMC6760453, “Conformational characterization of full-length X-chromosome-linked inhibitor of apoptosis protein (XIAP) through an integrated approach” (IUCrJ, 2019).

This series concerns the molecule itself. As to the kind of experiment: EPR-DEER; Q-band (34 GHz) four-pulse DEER at 50 K on MTSL-labelled XIAP; dimer concentration 15 uM; 20 mM Tris pH 7.4.

B1: XIAP C202R1 (XIAP C12A, C213G, C351S labelled with MTSL nitroxide on Cys202) (natural protein, human, UniProt P98170 1-497, looked up)
chain: MTFNSFEGSKTAVPADINKEEEFVEEFNRLKTFANFPSGSPVSASTLARAGFLYTGEGDTVRCFSCHAAVDRWQYGDSAVGRHRKVSPNCRFINGFYLENSATQSTNSGIQNGQYKVENYLGSRDHFALDRPSETHADYLLRTGQVVDISDTIYPRNPAMYSEEARLKSFQNWPDYAHLTPRELASAGLYYTGIGDQVQCFCCGGKLKNWEPGDRAWSEHRRHFPNCFFVLGRNLNIRSESDAVSSDRNFPNSTNLPRNPSMADYEARIFTFGTWIYSVNKEQLARAGFYALGEGDKVKCFHCGGGLTDWKPSEDPWEQHAKWYPGCKYLLEQKGQEYINNIHLTHSLEESLVRTTEKTPSLTRRIDDTIFQNPMVQEAIRMGFSFKDIKKIMEEKIQISGSNYKSLEVLVADLVNAQKDSMQDESSQTSLQKEISTEEQLRRLQEEKLCKICMDRNIAIVFVPCGHLVTCKQCAEAVDKCPMCYTVITFKQKIFMS
modifications: MTSL nitroxide spin label on Cys202
notes: Mutations were introduced into the WT XIAP gene; also called XIAP C202-MTSL
Regarding B1, the binding result is recorded as “binds”.
